Consider one substance from paper PMC7939477.

The test concerns the target PdGH110B (GH110 family α-1,3-galactosidase from Pseudoalteromonas distincta U2A) (Pseudoalteromonas distincta U2A). The experiment in a line: dynamic light scattering; PdGH110B in solution at protein concentrations of 0.18, 0.37 and 0.73 mg/ml; monomer to dimer.

For “PdGH110B (GH110 family α-1,3-galactosidase from Pseudoalteromonas distincta U2A) (enzyme)”, the stoichiometry N was 2.
